Molecular target: the molecule itself
Test: gel filtration in the presence of DNA and Mg++ (self-association)

B1: nicking endonuclease N.BstNBI (enzyme)
chain: MAKKVNWYVSCSPRSPEKIQPELKVLANFEGSYWKGVKGYKAQEAFAKELAALPQFLGTTYKKEAAFSTRDRVAPMKTYGFVFVDEEGYLRITEAGKMLANNRRPKDVFLKQLVKWQYPSFQHKGKEYPEEEWSINPLVFVLSLLKKVGGLSKLDIAMFCLTATNNNQVDEIAEEIMQFRNEREKIKGQNKKLEFTENYFFKRFEKIYGNVGKIREGKSDSSHKSKIETKMRNARDVADATTRYFRYTGLFVARGNQLVLNPEKSDLIDEIISSSKVVKNYTRVEEFHEYYGNPSLPQFSFETKEQLLDLAHRIRDENTRLAEQLVEHFPNVKVEIQVLEDIYNSLNKKVDVETLKDVIYHAKELQLELKKKKLQADFNDPRQLEEVIDLLEVYHEKKNVIEEKIKARFIANKNTVFEWLTWNGFIILGNALEYKNNFVIDEELQPVTHAAGNQPDMEIIYEDFIVLGEVTTSKGATQFKMESEPVTRHYLNKKKELEKQGVEKELYCLFIAPEINKNTFEEFMKYNIVQNTRIIPLSLKQFNMLLMVQKKLIEKGRRLSSYDIKNLMVSLYRTTIECERKYTQIKAGLEETLNNWVVDKEVRF
notes: Tested for self-association by gel filtration under the same condition as MlyI; No dimers were observed
B1: no binding.

Source: patent publication US6395523 (NEW ENGLAND BIOLABS, dated 2002)
